One block for each binder: values may come before it.
Key:
[1] = biological target: mutEGFR on NCI-H1650 (non-small cell lung cancer) cells (human); experiment: cell-based or functional assay
[2] = biological target: T1, truncated wild-type EGFR 1-525, [EGFR1(h)(1-525)]-LESRGPF-Myc-NMHTG-6His (human, UniProt P00533 25-525); experiment: SPR, Biacore T200, 25 C, anti-Fc capture of ADC, EGFR ECD as analyte, 1:1 model
T1 construct: Recombinant soluble truncated ECD secreted from HEK293 cells; also called EGFRs1-501; ECD EGFR 1-525; not shown: Myc tag
Description: (§1) Binding kinetics for AM2 and AM2-AAA for recombinant soluble EGFR extracellular domains (ECDs) were determined by surface plasmon resonance-based measurements made on a Biacore T200 instrument (GE Healthcare) at 25° C. using an anti-Fc capture assay approach. Recombinant soluble ECDs for the three isoforms of EGFR were expressed from transiently transfected HEK293 cells as secreted proteins with a C-terminal myc and histidine tag, and purified by Ni-IMAC (immobilized metal affinity chromatography) and SEC. In particular, the EGFR ECD tested included amino acids 1-645 of EGFR fused to a myc and histidine tag [(EGFR (1-645)-LESRGPF-Myc-NMHTG-6His (“LESRGPF” (SEQ ID NO: 27))]. The EGFRvIII variant was also fused to a myc and histidine tag (EGFR(h)(1-29)-G-(298-645)-LESRGPF-Myc-NMHTG-6His), as was the ECD EGFR 1-525 [EGFR1(h)(1-525)]-LESRGPF-Myc-NMHTG-6His (“LESRGPF” (SEQ ID NO: 28))]. All ECDs were expressed with the signal sequence […] which was cleaved during secretion.
(§2) Chip preparation and binding kinetic measurements were made in the assay buffer HBS-EP+ (10 mM Hepes, pH 7.4, 150 mM NaCl, 3 mM EDTA, 0.05% Tween 20). For anti-Fc capture chip preparation, approximately 2000 RU of goat anti-human IgG Fc polyclonal antibody (Thermo Fisher Scientific Inc., cat. 31125), diluted to 25 μg/mL in 10 mM sodium acetate (pH 4.5) was directly immobilized across a CM5 biosensor chip using a standard amine coupling kit according to manufacturer's instructions and procedures (GE Healthcare). Unreacted moieties on the biosensor surface were blocked with ethanolamine. For binding kinetics measurements each assay cycle consisted of the following steps: (1) capture of test antibody on test surface only; (2) analyte injection (EGFR ECD or buffer only) over both reference and test surface (240 μL at 80 μl/min), after which the dissociation was monitored for 900 seconds at 80 μl/min; (3) regeneration of the capture surface by 10 mM Glycine-HCl, pH 1.5 injections over both reference and test surface.
(§3) For kinetic determinations, analytes were randomized 3-fold dilution series from 3 uM top dose. During the assay, all measurements were referenced against the capture surface alone (i.e., with no captured test antibody) and buffer-only injections were used for secondary referencing.

[3] = biological target: T2, EGFRvIII (hEGFR de2-7) [EGFR(H)(1-29)-G-(298-645)], EGFR(h)(1-29)-G-(298-645)-LESRGPF-Myc-NMHTG-6His (human, UniProt P00533 298-645); experiment: as above
T2 construct: Recombinant soluble ECD secreted from HEK293 cells; not shown: Myc tag
Description: as §1, §2, §3

[4] = biological target: T3, wt EGFR overexpressed on the surface of A431 (A-431, human epidermoid carcinoma) cells (human, UniProt P00533 25-1210); experiment: FACS on A-431 cells, 1 h at 4 C, AlexaFluor 488 secondary antibody, geometric mean fluorescence
T3 construct: Endogenous receptor of the tumor cell line; also called wt EGFR (A431); wild type human EGFR
Description: To assay binding of AM2-AAA to cell surface overexpressed wt EGFR and to mutant forms of EGFR including the activating mutations found in NSCLC (mutEGFR), tumor cells overexpressing wt EGFR (A431) and mutEGFR (NCI-H1650) were assessed by fluorescence activated cell sorting (FACS).
Cells were harvested from flasks when at approximately 1.5×10⁶ cells/mL. Cells were washed once in PBS/1% FBS (FACS buffer) then resuspended at 2.5×10⁶ cells/mL in FACS buffer. 50 μL of cells were added to a round bottom 96-well plate. 50 μL of a 2× concentration of mAb/ADC (final concentrations are indicated in the figures) was added to wells and the plate was incubated at 4° C. for one hour. The cells were washed twice in FACS buffer and resuspended in 50 μL of a 1:100 dilution of secondary Ab (AlexaFluor 488, Invitrogen, 11013) diluted in FACS buffer. The plate was incubated at 4° C. for one hour and washed twice with FACS buffer. Cells were resuspended in 100 μL of PBS/1% formaldehyde and analyzed on a Becton Dickinson FACSCanto II flow cytometer. Data was analyzed using WinList flow cytometry analysis software.

[5] = biological target: T4, wild-type EGFR extra-cellular domain (ECD), EGFR (1-645)-LESRGPF-Myc-NMHTG-6His (human, UniProt P00533 25-645); experiment: SPR, Biacore T200, ADC captured by anti-Fc, EGFR ECD as analyte
T4 construct: Recombinant soluble ECD secreted from HEK293 cells; also called hEGFR WT; EGFR(h)(1-645); not shown: Myc tag
Description: (§4) Binding kinetics for AM2 and AM2-AAA for recombinant soluble EGFR extracellular domains (ECDs) were determined by surface plasmon resonance-based measurements made on a Biacore T200 instrument (GE Healthcare) at 25° C. using an anti-Fc capture assay approach. Recombinant soluble ECDs for the three isoforms of EGFR were expressed from transiently transfected HEK293 cells as secreted proteins with a C-terminal myc and histidine tag, and purified by Ni-IMAC (immobilized metal affinity chromatography) and SEC. […]
(§5) Chip preparation and binding kinetic measurements were made in the assay buffer HBS-EP+ (10 mM Hepes, pH 7.4, 150 mM NaCl, 3 mM EDTA, 0.05% Tween 20). […] For binding kinetics measurements each assay cycle consisted of the following steps: (1) capture of test antibody on test surface only; (2) analyte injection (EGFR ECD or buffer only) over both reference and test surface (240 μL at 80 μl/min), after which the dissociation was monitored for 900 seconds at 80 μl/min; (3) regeneration of the capture surface by 10 mM Glycine-HCl, pH 1.5 injections over both reference and test surface. […]

[6] = biological target: T3, wt EGFR overexpressed on the surface of …; experiment: cell-based or functional assay
[7] = biological target: T3, wt EGFR overexpressed on the surface of …; experiment: cell-based or functional assay; remark: listed apart in the source
[8] = biological target: T4, wild-type EGFR extra-cellular domain …; experiment: SPR, Biacore T200, antibody captured by anti-Fc, EGFR ECD as analyte
Description: as §4, §5

[9] = biological target: T1, truncated wild-type EGFR 1-525, …; experiment: SPR, Biacore T200, 25 C, anti-Fc capture of antibody, EGFR ECD as analyte, 1:1 model
Description: as §1, §2, §3

[10] = biological target: T2, EGFRvIII (hEGFR de2-7) …; experiment: as above
Description: as §1, §2, §3

IC50 (read off the curve), % Bim bound to BCL-xl in NCI-H1650 cells [1]: ~20 nM | Kd [2]: 400 nM | koff [2]: 0.0012 s⁻¹ | kon [2]: 2900 M⁻¹ s⁻¹ | Kd [3]: 4.9 nM | koff [3]: 0.00017 s⁻¹ | kon [3]: 35000 M⁻¹ s⁻¹ | EC50 (read off the curve) [4]: ~100 nM | binding result [5]: no binding (tested: 3 µM top dose) | EC50 (read off the curve), caspase 3/7 activity fold change in A431 cells [6]: ~7 nM | IC50 (read off the curve), % Bim bound to BCL-xl in A-431 cells [7]: ~3 nM
B1: AM2-AAA ADC (antibody, human IgG1, kappa, L234A L235A, DAR 2, V domains shown)
VH: EVQLQESGPGLVKPSQTLSLTCTVSGYSISNDFAWNWIRQPPGKGLEWMGYISYKGNTRYQPSLKSRITISRDTSKNQFFLKLNSVTAADTATYYCVTASRGFPWWGQGTLVTVSS
VL: DIQMTQSPSSMSVSVGDRVTITCHSSQDINSNIGWLQQKPGKSFKGLIYHGTNLDDGVPSRFSGSGSGTDYTLTISSLQPEDFATYYCVQYAQFPWTFGGGTKLEIKR
modifications: AAA synthon (Bcl-xL inhibitor drug-linker) conjugated through C220 of the heavy chain (i.e., C219 of SEQ ID NO: 1); average DAR 2
notes: Antibody-drug conjugate: the AM2 antibody conjugated to the AAA synthon, average DAR 2; The conjugation site (C220) is stated only in the summary and embodiments

EC50 (read off the curve) [4]: ~80 nM | binding result [8]: no binding (tested: 3 µM top dose) | Kd [9]: 420 nM | koff [9]: 0.0012 s⁻¹ | kon [9]: 2800 M⁻¹ s⁻¹ | Kd [10]: 5 nM | koff [10]: 0.00017 s⁻¹ | kon [10]: 33000 M⁻¹ s⁻¹
B2: AM2 antibody (antibody, human IgG1, kappa, L234A L235A, V domains shown)
VH: B1 VH
VL: B1 VL
notes: Humanized IgG1, z,a allotype, with the LALA mutation (L234A, L235A) and LC:C214A (C6v1); Expressed in HEK293 cells; also called EGFR AM2 antibody

Reference: patent US20250170263A1 (AbbVie / Abbott, published 2025)
